Test results taken from publication doi:10.1101/2024.06.27.600912 (bioRxiv, 2024).
Substitutions are numbered along the chain they refer to. Names and notes keep the numbering of the source.

B1: MORC2 phosphodead mutant (S725A, S730A, S739A, S743A, S777A, S779A), full length (natural protein)
chain: MAFTNYSSLNRAQLTFEYLHTNSTTHEFLFGALAELVDNARDADATRIDIYAERREDLRGGFMLCFLDDGAGMDPSDAASVIQFGKSAKRTPESTQIGQYGNGLKSGSMRIGKDFILFTKKEDTMTCLFLSRTFHEEEGIDEVIVPLPTWNARTREPVTDNVEKFAIETELIYKYSPFRTEEEVMTQFMKIPGDSGTLVIIFNLKLMDNGEPELDIISNPRDIQMAETSPEGTKPERRSFRAYAAVLYIDPRMRIFIHGHKVQTKRLSCCLYKPRMYKYTSSRFKTRAEQEVKKAEHVARIAEEKAREAESKARTLEVRLGGDLTRDSRVMLRQVQNRAITLRREADVKKRIKEAKQRALKEPKELNFVFGVNIEHRDLDGMFIYNCSRLIKMYEKVGPQLEGGMACGGVVGVVDVPYLVLEPTHNKQDFADAKEYRHLLRAMGEHLAQYWKDIAIAQRGIIKFWDEFGYLSANWNQPPSSELRYKRRRAMEIPTTIQCDLCLKWRTLPFQLSSVEKDYPDTWVCSMNPDPEQDRCEASEQKQKVPLGTFRKDMKTQEEKQKQLTEKIRQQQEKLEALQKTTPIRSQADLKKLPLEVTTRPSTEEPVRRPQRPRSPPLPAVIRNAPSRPPSLPTPRPASQPRKAPVISSTPKLPALAAREEASTSRLLQPPEAPRKPANTLVKTASRPAPLVQQLSPSLLPNSKSPREVPSPKVIKTPVVKKTEAPIKLAPATPSRKRAVAVADEEEVEEEAERRKERCKRGRFVVKEEKKDSNELADAAGEEDSADLKRAQKDKGLHVEVRVNREWYTGRVTAVEVGKHVVRWKVKFDYVPTDTTPRDRWVEKGSEDVRLMKPPSPEHQSLDTQQEGGEEEVGPVAQQAIAVAEPSTSECLRIEPDTTALSTNHETIDLLVQILRNCLRYFLPPSFPISKKQLSAMNSDELISFPLKEYFKQYEVGLQNLCNSYQSRADSRAKASEESLRTSERKLRETEEKLQKLRTNIVALLQKVQEDIDINTDDELDAYIEDLITKGD
B2: full-length MORC2 ATPase-dead mutant S87A (natural protein)
chain: B1 chain with S87A, A725S, A730S, A739S, A743S, A777S, A779S

Biological target: the molecule itself
Experiment: cryo-EM structure

| Protein | binding result |
| --- | --- |
| B1 | binds |
| B2 | binds |
